Assay: soluble on expression in E. coli; label from the status in PepcDB or PDB records

Question: Which “soluble on expression in E. coli” value does the source give for “MGSDKIHHHHHHVVYRYGLALVTQPPLVSLEDLGYGHGPGQRLFDGLSLHIHSGECHCICGPTGSGKSSLLALIAGLNERPFAGVLECQSGVQVALVMQDPQVQLLRRTLGAEVAFGLENQGVAADDMPAAVKSALIRVGLELPLDTCIDTLSLGQKYRVMLASQLVLNPRVLLLDEPWAQLDDEGVGQLMVTLARLKADGMALIIAEHHPAAFAGLLDFHWLLDQGRLQPAAAGKASGALRADILCRWNPNGLGGRKCLTLAPCDLVLPTLAQGGRGRSGSKGFLSARFASAAPEGRSLFRLDTPLVLRTGDIRLLLGDNGSGKSTLLKALAGLQDGVKLPVKLDGRIPNTAAGEVALMLQRPSRQLFELTVVEELSFSIRRRGLDEAQVAWVQAFLAIEHLAAVSPHKLSWGQQHLVLLAALVITEPRLLLLDDPFAGLDEQSLMACIKLLNWYLSRGGCCVLACHRDVTGFEQVARWQLKDGLLTEVEASGQALAARDGAQTKPWELAAGGMGR” here?
Answer: not soluble

Question: Which “soluble on expression in E. coli” value does the source give for “MALLAEHLLRPLPADKQIETGPFLEAVSHLPPFFDCLGSPVFTPIKADISGNITKIKAVYDTNPTKFRTLQNILEVEKEMYGAEWPKVGATLALMWLKRGLRFIQVFLQSICDGERDENHPNLIRVNATKAYEMALKKYHGWIVQKIFQAALYAAPYKSDFLKALSKGQNVTEEECLEKVRLFLVNYTATIDVIYEMYTRMNAELNYKV” here?
Answer: soluble

Question: For “MCSALVVAAPHSGSGKTTVTAAIARYHRVQGRKVTVFKVGPDFIDPMILRQASGELVYQLDLWLVGEQGCRALLHRAAMDSDLILIEGVMGLFDGTPSSADLAKYFNIPVLGVIDAKAMAQTFAAVTFGLAKFCEDLPFSGVIANRVNTERHAELLSVSLPKAFRFYGRIPKDDTITLPERHLGLVQAQELSDIDVQLDKAASHIANTGLTELPSQVEFFAQEDDNQENIIEGALAGTRIIIIRDSAFSFIYAANIAFLTQTGAELIYCSAMADVHLPDGDILYIPGGYPELYAEQLMNNVTFLSDIRAFSASNKPIVAECGGMLYLLEQLTDMEGQQFSMLGLMPGKATMQKKLAAIGSQWVPLPSFADAAEDSADNIMRGHSFHYSCAEIELEPSSQTTHHPSERAGEYVYQHNNILASYMHWYFPSNPSLTLRIFDKARYLLEHHHHHH”, which “soluble on expression in E. coli” value is on record?
Answer: soluble

Question: For “MAHHHHHHMRNSKEGNLIVHDLDFMKRILLNDERKWGEESAPGEGRTESSHQPKIITIVLNNTLCAHSAKFIANSDVLICADGGANRLYNLCQSLATERGAIDDEGSSLKGEEDKNTALHASHTNERSHHVSGRHTISDLFNMPVEKKEKALKRPTEIVPHIICGDFDSINAHVYSYYKNKSVIFEKCANQENTDLDKCIDVIRGYIRTNDKILILGATGNRFDHTCANISCLYKNASLNSLYLIGENNFLFLLQQGSHIIHVSPDVFCKGCGILPFGGKCTIKTEGLKYNLNDECLSFDTLISSSNEVVQREVKIFNDSPVVWSAQLRGDAQSHTHS”, which “soluble on expression in E. coli” value is on record?
Answer: soluble

Question: Which “soluble on expression in E. coli” value does the source give for “TCGLRQYSQPQFRIKGGLFADIASHPWQAAIFAKHRRSPGERFLCGGILISSCWILSAAHCFQERFPPHHLTVILGRTYRVVPGEEEQKFEVEKYIVHKEFDDDTYDNDIALLQLKSDSSRCAQESSVVRTVCLPPADLQLPDWTECELSGYGKHEALSPFYSERLKEAHVRLYPSSRCTSQHLLNRTVTDNMLCAGDTRSGGPQANLHDACQGDSGGPLVCLNDGRMTLVGIISWGLGCGQKDVPGVYTKVTNYLDWIRDNMRP” here?
Answer: soluble

Question: For “MNASSRTKPAIDLNKVPPIDHHRTAVTFNCLIMKMTEMLNNFGNKMEDILEKAEQSLDTADRKLRLMESKLAGMSLEDKSTTATPSSAPEIDEIHESNPSSSQIVEETVEEKPEEHTTTVLIKDDPAYSKYFKMLKLGVLEAGVIQKMKSEGVDPSILKRGDEPSRPQAQTSRNYESSGESTASFSDSD”, which “soluble on expression in E. coli” value is on record?
Answer: not soluble

Question: For “MLSDIQHDQFGFIKGCIISVIWLSLSRTLNRDQLNLDRFEFWQPTSQLLVLDVCLFDAFALEHHHHHH”, which “soluble on expression in E. coli” value is on record?
Answer: not soluble

Question: For “ERGKFAAVFNDITERRLMEDELRRQEQSHRLVLDNIPDIIARFDRELRHLYVSAAITRVTGFPPEHFIGRTNREIGMPDELVDRWDAAINEVFSSGREQRLEFTYQSPRGLRHFETTLIPERGADDSSAAVLVVNHD”, which “soluble on expression in E. coli” value is on record?
Answer: not soluble

Question: For “MERLKIQVLVDNNTYIDRYFVGEPAVSYYIEIDGNRILFDSGYSDVFISNAEKLNIDLGNLTHVVFSHGHNDHTRGIQFLENRYDLSTVELVSHPNCFIPRKHGEKSIGAPFSAEEIKNIFMYNPKDKPFNLSKNCVFLGEIPSINDFEKRAKIGKCKIGDLWEDDYVLDDSAIVCKTDKGIFIVTGCSHSGICNIVEYAKKVCGDDRVIGILGGFHLFELNNRLDSTIQYLDKEEIRMLYPCHCVSFKVKAKMNEILNINEVGVGLTISILEHHHHHH”, which “soluble on expression in E. coli” value is on record?
Answer: soluble
